Results on 94 variants are retold here after the supplement of paper PMC10567573.

B1: ANKRD40 (parent)
chain: VCCCELGVNPDQVEKIRKLPNTLL
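Also: lentivirally expressed fusions sorted by FACS into six bins by GFP to DsRed ratio, PSI derived from sequencing read proportions per bin multiplied by bin number.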

This data set covers variants of B1. In words: protein stability index of a GFP-peptide fusion (GPS, HEK-293T) (PSI 1-6); higher = more stable. Particulars: c terminus: a fixed tail appended.
In the case of VCCCELGVNPDQGEKIRKLPNTLL, the protein stability index was determined as 2.5.

As to VCCCELGVNPDQYEKIRKLPNTLL, the protein stability index worked out at 1.84.

Turning to VCCCELGVNPDQWEKIRKLPNTLL, the protein stability index was 2.07.

Regarding VCCCELGVNPDQLEKIRKLPNTLL, the protein stability index was found to be 1.64.

For VCCCELGVNPDQREKIRKLPNTLL, the protein stability index was 2.27.

VHCCELGVNPDQVEKIRKLPNTLL: the protein stability index was 2.65.

For the variant VQCCELGVNPDQVEKIRKLPNTLL, the protein stability index worked out at 3.56.

Regarding VPCCELGVNPDQVEKIRKLPNTLL, the protein stability index was determined as 3.22.

Take VGCCELGVNPDQVEKIRKLPNTLL: the protein stability index turned out to be 2.73.

Turning to VKCCELGVNPDQVEKIRKLPNTLL, the protein stability index is 2.63.

With VDCCELGVNPDQVEKIRKLPNTLL, the protein stability index stood at 3.2.

For the variant VCCCELGVNPDEVEKIRKLPNTLL, the protein stability index is 2.16.

VCCCELGVNPDKVEKIRKLPNTLL: the protein stability index was 1.76.

With VCCCPLGVNPDQVEKIRKLPNTLL, the protein stability index stood at 2.17.

As to VCCCKLGVNPDQVEKIRKLPNTLL, the protein stability index turned out to be 2.22.

Take VCCCLLGVNPDQVEKIRKLPNTLL: the protein stability index was found to be 2.28.

As for VCCCCLGVNPDQVEKIRKLPNTLL, the protein stability index came out at 1.1.

With VCCCELGVNPDQVEKITKLPNTLL, the protein stability index came to 1.47.

As for VCCCELGVNPDQVEKIMKLPNTLL, the protein stability index was found to be 1.9.

TCCCELGVNPDQVEKIRKLPNTLL: the protein stability index amounted to 1.71.

On to VCCCELGTNPDQVEKIRKLPNTLL, for which the protein stability index came to 1.62.

As for VCCCELGRNPDQVEKIRKLPNTLL, the protein stability index is 1.81.

For VCCCELGKNPDQVEKIRKLPNTLL, the protein stability index turned out to be 2.2.

Take VCCCELGHNPDQVEKIRKLPNTLL: the protein stability index turned out to be 2.17.

As to VCCCELGVDPDQVEKIRKLPNTLL, the protein stability index worked out at 2.01.

As for VCCCELGVEPDQVEKIRKLPNTLL, the protein stability index came to 1.7.

With VCCCELGVRPDQVEKIRKLPNTLL, the protein stability index was determined as 1.92.

Regarding VCCCELGVNPDQVEKIRKLPQTLL, the protein stability index turned out to be 1.74.

For the variant VCCCELGVNPDQVEKIRKLPDTLL, the protein stability index turned out to be 2.43.

As to VCCCELGVNPDQVEKIRKLPYTLL, the protein stability index is 2.47.

With VCCCELGVNPDQVEKIRKLPGTLL, the protein stability index came out at 1.45.

In the case of VCCCELGVNPDQVEKIRKLPLTLL, the protein stability index was found to be 1.94.

For VCCCELGVNPDQVEDIRKLPNTLL, the protein stability index was determined as 2.17.

Take VCCCELGVNPDQVECIRKLPNTLL: the protein stability index was 1.33.

As for VCCCELGVNPDQVENIRKLPNTLL, the protein stability index amounted to 1.94.

VCCCELGVNPDQVEKIRKDPNTLL: the protein stability index is 2.9.

Turning to VCCCELGVNPDQVEKIRKRPNTLL, the protein stability index came to 2.5.

For the variant VCCCELGVNPDQVEKIRKQPNTLL, the protein stability index came out at 2.5.

Turning to VCCCELGVNPDQVEKIRKVPNTLL, the protein stability index turned out to be 2.62.

Consider VCCCELGVNPDQVEKIRKHPNTLL, for which the protein stability index was found to be 1.79.

As for VCCCELGVNPDQVEKMRKLPNTLL, the protein stability index stood at 1.67.

For VCCCELGVNPDQVEKIRKLPNTNL, the protein stability index was 2.05.

On to VCCCELGVNPDQVEKIRKLPNTML, for which the protein stability index came out at 1.89.

With VCCCELGVNPDQVEKIRKLPNTEL, the protein stability index amounted to 3.05.

As to VCCCELGVNPDQVEKIRKLPNTAL, the protein stability index came to 1.98.

Consider VCCCELGVNPDQVEKIRKLPNTIL, for which the protein stability index is 1.6.

With VCCLELGVNPDQVEKIRKLPNTLL, the protein stability index turned out to be 1.73.

Consider VCCDELGVNPDQVEKIRKLPNTLL, for which the protein stability index was 3.17.

For VCCNELGVNPDQVEKIRKLPNTLL, the protein stability index is 2.41.

As for VCCGELGVNPDQVEKIRKLPNTLL, the protein stability index stood at 2.12.

For the variant VCCKELGVNPDQVEKIRKLPNTLL, the protein stability index turned out to be 2.22.

As for VCCCELGVNPDQVEKIRKLPNTLA, the protein stability index stood at 1.71.

Regarding VCCCELGVNPDQVEKIRKLPNTLW, the protein stability index stood at 2.1.

Turning to VCCCELGVNPDQVEKIRKLPNTLT, the protein stability index came out at 1.94.

In the case of VCCCELGVNPDQVEKIRKLPNTLG, the protein stability index was determined as 2.56.

Turning to VCCCELGVNPDQVEKIRKLPNTLH, the protein stability index was 2.02.

Turning to VCCCELGVNVDQVEKIRKLPNTLL, the protein stability index amounted to 2.01.

As to VCCCELGVNMDQVEKIRKLPNTLL, the protein stability index worked out at 1.55.

As for VCCCELGVNCDQVEKIRKLPNTLL, the protein stability index turned out to be 1.94.

As to VCCCELGVNLDQVEKIRKLPNTLL, the protein stability index stood at 2.17.

Regarding VCCCELGVNTDQVEKIRKLPNTLL, the protein stability index is 1.98.

Turning to VCCCELGVNEDQVEKIRKLPNTLL, the protein stability index came to 2.11.

On to VCCCEHGVNPDQVEKIRKLPNTLL, for which the protein stability index was found to be 2.15.

Take VCCCERGVNPDQVEKIRKLPNTLL: the protein stability index was 2.3.

Regarding VCCCEAGVNPDQVEKIRKLPNTLL, the protein stability index turned out to be 2.

Turning to VCCCELGVNPDQVEKIRLLPNTLL, the protein stability index turned out to be 1.72.

VCCCELGVNPDQVEKIRWLPNTLL: the protein stability index worked out at 1.75.

For the variant VCCCELGVNPDQVEKIRILPNTLL, the protein stability index turned out to be 1.43.

As for VCCCELGVNPDQVEKIRVLPNTLL, the protein stability index came to 2.15.

Consider VCCCELGVNPDQVEKIRGLPNTLL, for which the protein stability index was 1.53.

Consider VCCCELGVNPDQVEKIRHLPNTLL, for which the protein stability index worked out at 2.95.

Turning to VCCCELGVNPDQVEKIRKLHNTLL, the protein stability index was 2.55.

Regarding VCCCELGVNPDQVEKIRKLMNTLL, the protein stability index is 1.57.

With VCCCELGVNPDQVEKIRKLENTLL, the protein stability index came to 1.4.

On to VCCCELDVNPDQVEKIRKLPNTLL, for which the protein stability index came out at 1.96.

As to VCCCELHVNPDQVEKIRKLPNTLL, the protein stability index was found to be 2.45.

As for VCCCELNVNPDQVEKIRKLPNTLL, the protein stability index is 1.43.

With VCCCELIVNPDQVEKIRKLPNTLL, the protein stability index was 2.45.

As for VCGCELGVNPDQVEKIRKLPNTLL, the protein stability index worked out at 2.19.

For VCECELGVNPDQVEKIRKLPNTLL, the protein stability index worked out at 2.77.

Regarding VCCCELGVNPDQVDKIRKLPNTLL, the protein stability index came out at 1.66.

As for VCCCELGVNPDQVLKIRKLPNTLL, the protein stability index amounted to 2.13.

On to VCCCELGVNPDQVPKIRKLPNTLL, for which the protein stability index came out at 2.95.

For the variant VCCCELGVNPDQVNKIRKLPNTLL, the protein stability index is 1.91.

On to VCCCELGVNPDQVYKIRKLPNTLL, for which the protein stability index was determined as 2.09.

For the variant VCCCELGVNPDQVEKIRKLPNSLL, the protein stability index stood at 1.79.

Consider VCCCELGVNPDQVEKIRKLPNCLL, for which the protein stability index is 1.72.

As for VCCCELGVNPDQVEKIRKLPNFLL, the protein stability index was 2.2.

Take VCCCELGVNPDQVEKIRKLPNWLL: the protein stability index was determined as 2.01.

VCCCELGVNPDQVEKIRKLPNRLL: the protein stability index was 2.02.

VCCCELGVNPDQVEKIRKLPNDLL: the protein stability index was determined as 2.5.

For the variant VCCCELGVNPDQVEKIRKLPNILL, the protein stability index turned out to be 2.06.

Take VCCCELGVNPDQVEKIRKLPNYLL: the protein stability index was determined as 1.63.

For the variant VCCCELGVNPRQVEKIRKLPNTLL, the protein stability index was found to be 2.63.
